Source: paper PMC3924328, “Structure of the S100A4/myosin-IIA complex” (BMC Structural Biology, 2013)

B1: myosin-IIA rod (residues 1102–1960): myosin-IIA rod, residues 1102–1960 (protein, UniProt P35579 1102-1960, looked up, fragment)
chain: ALKKIRELESQISELQEDLESERASRNKAEKQKRDLGEELEALKTELEDTLDSTAAQQELRSKREQEVNILKKTLEEEAKTHEAQIQEMRQKHSQAVEELAEQLEQTKRVKANLEKAKQTLENERGELANEVKVLLQGKGDSEHKRKKVEAQLQELQVKFNEGERVRTELADKVTKLQVELDNVTGLLSQSDSKSSKLTKDFSALESQLQDTQELLQEENRQKLSLSTKLKQVEDEKNSFREQLEEEEEAKHNLEKQIATLHAQVADMKKKMEDSVGCLETAEEVKRKLQKDLEGLSQRHEEKVAAYDKLEKTKTRLQQELDDLLVDLDHQRQSACNLEKKQKKFDQLLAEEKTISAKYAEERDRAEAEAREKETKALSLARALEEAMEQKAELERLNKQFRTEMEDLMSSKDDVGKSVHELEKSKRALEQQVEEMKTQLEELEDELQATEDAKLRLEVNLQAMKAQFERDLQGRDEQSEEKKKQLVRQVREMEAELEDERKQRSMAVAARKKLEMDLKDLEAHIDSANKNRDEAIKQLRKLQAQMKDCMRELDDTRASREEILAQAKENEKKLKSMEAEMIQLQEELAAAERAKRQAQQERDELADEIANSSGKGALALEEKRRLEARIAQLEEELEEEQGNTELINDRLKKANLQIDQINTDLNLERSHAQKNENARQQLERQNKELKVKLQEMEGTVKSKYKASITALEAKIAQLEEQLDNETKERQAACKQVRRTEKKLKDVLLQVDDERRNAEQYKDQADKASTRLKQLKRQLEEAEEEAQRANASRRKLQRELEDATETADAMNREVSSLKNKLRRGDLPFVVPRRMARKGAGDGSDEEVDGKADGAEAKPAE
B2: MIIA^1851-1960: C-terminal fragment of the human myosin-IIA heavy chain that corresponds to residues 1851–1960 (protein)
chain: VDDERRNAEQYKDQADKASTRLKQLKRQLEEAEEEAQRANASRRKLQRELEDATETADAMNREVSSLKNKLRRGDLPFVVPRRMARKGAGDGSDEEVDGKADGAEAKPAE

Assays:
[1] = ref [45]; cited from earlier work
Source text: An interesting feature of the S100A4/myosin-IIA complex is that myosin-IIA residues contributing to the coiled-coil interface also mediate S100A4 binding.

S100A4 [2] = target: T1, S100A4 (Homo sapiens, UniProt P26447); experiment: Sedimentation equilibrium of MIIA^1851-1960 and S100A4/MIIA^1851-1960 mixtures; format: physicochemical; settings: 22°C
T1 construct: heteronuclear single quantum coherence spectrum (HSQC) of full-length Ca^2+-S100A4 at 600 MHz; made in house; host or cells: E. coli, M9 medium with 15N NH4Cl (BL21(DE3)* is named for the unlabelled protein)
T1 sequence (P26447 2-101 limits assumed, one chain of several): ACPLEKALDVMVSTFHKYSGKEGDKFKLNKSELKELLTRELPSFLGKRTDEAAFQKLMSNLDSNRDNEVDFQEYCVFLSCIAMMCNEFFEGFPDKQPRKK
Description: (§1) Sedimentation equilibrium and velocity experiments were conducted at 22°C in a Beckman XL-I analytical ultracentrifuge using a Ti60 rotor and Raleigh interference optics. Wild-type S100A4 and MIIA^1851-1960 were dialyzed into 20 mM Tris pH 7.5, 150 mM KCl, 0.5 mM CaCl2, 1 mM TCEP and 0.02% NaN3 and clarified by ultracentrifugation at 80,000 rpm for 10 minutes at 4°C in TLA 120.2 rotor. Sedimentation equilibrium analysis of MIIA^1851-1960 and S100A4 was conducted in six channel centerpieces by sequentially equilibrating the protein at three concentrations for 24 hr at 12,000, 20,000 and 28,000 rpm and globally analyzing the data using HeteroAnalysis v1.1.44 (James L. Cole and Jeffrey W. Lary). The sedimentation velocity experiments were conducted at 53,000 rpm using double sector centerpieces and analyzed using DCDT + v2.4.0 [57, 58]. The best-fit parameters and their 95% joint confidence intervals are reported. The calculated masses of the wild-type S100A4 and MIIA^1851-1960 monomers are 11,597.3 and 12,397.5 Da, respectively. Values of ν-bar = 0.715 for S100A4/MIIA^851-1960 and 0.735 for S100A4, ρ = 1.0059, μ = 1.00586 cp were calculated using Sednterp v1.06 (Hayes, B., T. Laue & J. Philo, Sedimentation Interpretation Program. 2003, University of New Hampshire) from the amino acid and buffer compositions, respectively.

[3] = as above; format: physicochemical, human; settings: 22°C, MIIA^1851-1960 alone, 20 mM Tris pH 7.5, 150 mM KCl, 0.5 mM CaCl2, 1 mM TCEP, 0.02% NaN3, predicted 24,795
Description: as §1

[4] = Circular dichroism: secondary structure and thermal stability; format: physicochemical
Description: MIIA^1851-1960 was dialyzed into 20 mM Tris pH 7.5, 150 mM KCl, 0.5 mM CaCl2, 0.02% NaN3 and clarified by ultracentrifugation at 80,000 rpm for 10 minutes at 4°C in TLA 120.2 rotor. MIIA^1851-1960 (40 μM monomer concentration) was transferred to a 1 mm path-length quartz cuvette and scanned in Jasco J-815 Spectrometer equipped with a PFD-425 temperature controller. Spectra from 190 to 260 nm were obtained at 22°C using a scan speed of 100 nm/minute, a 1 nm bandwidth, and a sensitivity of 100 mdeg. Thermal melt curves were obtained by monitoring ellipticity at 222 nm while the sample temperature was increased from 2 – 85°C in 2°C intervals at a rate of 60°C/h, using a 1 nm bandwidth. The data were fit to a sigmoidal dose–response with a variable slope using Graphpad Prism v5.

S100A4 [5] = target: T1, S100A4; experiment: Sedimentation velocity of MIIA^1851-1960, S100A4 and S100A4/MIIA^1851-1960 mixtures; format: physicochemical; settings: sedimentation velocity, protein alone
Description: as §1

Molecule | Tm [1] | Oligomeric state (S100A4 [2]) | Experimental MW (weight-average molecular mass) [3] | Reversibility of thermal unfolding ([4]; CD, 222 nm, data not shown) | Transition midpoint (Tm) for unfolding ([4]; CD, ellipticity at 222 nm, 40 μM monomer, 20 mM Tris pH 7.5, 150 mM KCl, 0.5 mM CaCl2, 0.02% NaN3, 2 – 85°C at 60°C/h, average of two independent experiments) | Secondary structure by CD ([4]; far-UV, 190 to 260 nm, 22°C, 40 μM MIIA^1851-1960 monomer, pH 7.5) | Peak 1 S20,w (S100A4 [5]; 22°C, 53,000 rpm, 20 mM Tris pH 7.5, 150 mM KCl, 0.5 mM CaCl2, 1 mM TCEP, 0.02% NaN3) | Peak 1 MW (S100A4 [5]; 22°C) | S value (S100A4 [5]; 22°C) | [Peak 1] (green), relative amount of plateau concentrations (S100A4 [5]; 22°C)
B1 | 45 °C | – | – | – | – | – | – | – | – | –
B2 | – | we did not detect any monomer | 25,651 ± 308 Da | reversible | 27 °C | primarily α-helical | 1.91 ± 0.01 | 18.5 ± 0.2 kDa | 1.91 S | 2.09 ± 0.02
